Measurements as given in patent US20240383990A1 (DIAGONAL THERAPEUTICS, published 2024).
Like-named read-outs stand apart in the source and are kept apart here. Each block holds one binder with its values, some of them ahead of it.

Assays:
Test in all cases: cell-based or functional assay
[1] = molecular target: T1, IL-18 receptor (IL-18Rα and IL-18Rβ) on HEK-Blue IL-18 cells (UniProt Q13478 19-541; O95256 20-599, limits assumed)
T1 sequence (looked up) 1: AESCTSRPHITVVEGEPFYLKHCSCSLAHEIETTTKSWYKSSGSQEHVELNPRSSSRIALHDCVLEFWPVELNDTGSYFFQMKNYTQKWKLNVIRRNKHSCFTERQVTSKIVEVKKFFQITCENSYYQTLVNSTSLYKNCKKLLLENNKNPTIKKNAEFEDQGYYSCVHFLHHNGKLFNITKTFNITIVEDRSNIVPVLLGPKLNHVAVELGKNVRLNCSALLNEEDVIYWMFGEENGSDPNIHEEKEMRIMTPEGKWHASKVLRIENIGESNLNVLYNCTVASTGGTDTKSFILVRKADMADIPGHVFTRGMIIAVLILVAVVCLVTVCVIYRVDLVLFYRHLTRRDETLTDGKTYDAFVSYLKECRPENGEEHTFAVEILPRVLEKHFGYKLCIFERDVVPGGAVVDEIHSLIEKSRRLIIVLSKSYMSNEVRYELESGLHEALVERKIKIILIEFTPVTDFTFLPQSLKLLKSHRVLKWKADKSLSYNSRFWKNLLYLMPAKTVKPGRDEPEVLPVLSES
T1 sequence (looked up) 2: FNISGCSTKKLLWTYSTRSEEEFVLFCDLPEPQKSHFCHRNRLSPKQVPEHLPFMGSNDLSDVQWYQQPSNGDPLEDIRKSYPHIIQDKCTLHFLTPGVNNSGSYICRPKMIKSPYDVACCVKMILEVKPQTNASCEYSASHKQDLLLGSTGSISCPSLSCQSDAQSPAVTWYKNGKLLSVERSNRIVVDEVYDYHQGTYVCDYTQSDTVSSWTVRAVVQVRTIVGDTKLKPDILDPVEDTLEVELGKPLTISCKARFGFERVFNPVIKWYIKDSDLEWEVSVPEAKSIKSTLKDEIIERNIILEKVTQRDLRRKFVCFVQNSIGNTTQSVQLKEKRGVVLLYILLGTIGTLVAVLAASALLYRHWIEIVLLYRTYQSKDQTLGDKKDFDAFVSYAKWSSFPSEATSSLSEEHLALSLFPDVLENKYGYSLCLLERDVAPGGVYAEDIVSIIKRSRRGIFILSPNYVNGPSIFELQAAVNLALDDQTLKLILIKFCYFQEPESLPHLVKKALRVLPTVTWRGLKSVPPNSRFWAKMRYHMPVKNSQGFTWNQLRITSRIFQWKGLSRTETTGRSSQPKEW

[2] = molecular target: T1, IL-18 receptor (IL-18Rα and IL-18Rβ) on …; remark: listed apart in the source
[3] = molecular target: T1, IL-18 receptor (IL-18Rα and IL-18Rβ) on …; remark: listed apart in the source

B1: DGL210 (bispecific antibody)
chain 1: QVQLVESGGGLVQAGGSLRLSCAASGRTFSKHAMGWFRQAPGKEREFVAAIDWSGGSTYYADSVKGRFTISRDNAKNTVYLQMDSLKPEDTAVYYCAADSYTDYAQLWLPELESEYDYWGQGTLVTVSSGGGGSGGGGSGGGGSGGGGSCPPCPAPEAAGAPSVFLFPPKPKDTLMISRTPEVTCVVVDVSHEDPEVKFNWYVDGVEVHNAKTKPREEQYNSTYRVVSVLTVLHQDWLNGKEYKCKVSNKALPAPIEKTISKAKGQPREPQVCTLPPSRDELTKNQVSLSCAVKGFYPSDIAVEWESNGQPENNYKTTPPVLDSDGSFFLVSKLTVDKSRWQQGNVFSCSVMHEALHNHYTQKSLSLSPGWSHPQFEK
chain 2: QLQLVESGGGLVQAGGSLRLSCAASRSITFSHNVMGWYRQAPGKQRELVASIGSGGSTNYVDSVKGRATISRDNAKKTVYLQMNSLKPEDTAVYYCGVVVGVYRGSLGQGTLVTVSSGGGGSGGGGSGGGGSGGGGSCPPCPAPEAAGAPSVFLFPPKPKDTLMISRTPEVTCVVVDVSHEDPEVKFNWYVDGVEVHNAKTKPREEQYNSTYRVVSVLTVLHQDWLNGKEYKCKVSNKALPAPIEKTISKAKGQPREPQVYTLPPCRDELTKNQVSLWCLVKGFYPSDIAVEWESNGQPENNYKTTPPVLDSDGSFFLYSKLTVDKSRWQQGNVFSCSVMHEALHNHYTQKSLSLSPGEPEA
HEK-Blue assay, % human IL-18 [1]: 34 % of human IL18 activity

B2: DGL213 (bispecific antibody)
chain 1: QVQLVESGGGLVQAGGSLRLSCAASGRTFSKHAMGWFRQAPGKEREFVAAIDWSGGSTYYADSVKGRFTISRDNAKNTVYLQMDSLKPEDTAVYYCAADSYTDYAQLWLPELESEYDYWGQGTLVTVSSDKTHTCPPCPAPEAAGAPSVFLFPPKPKDTLMISRTPEVTCVVVDVSHEDPEVKFNWYVDGVEVHNAKTKPREEQYNSTYRVVSVLTVLHQDWLNGKEYKCKVSNKALPAPIEKTISKAKGQPREPQVCTLPPSRDELTKNQVSLSCAVKGFYPSDIAVEWESNGQPENNYKTTPPVLDSDGSFFLVSKLTVDKSRWQQGNVFSCSVMHEALHNHYTQKSLSLSPGWSHPQFEK
chain 2: QLQLVESGGGLVQAGGSLRLSCAASRSITFSHNVMGWYRQAPGKQRELVASIGSGGSTNYVDSVKGRATISRDNAKKTVYLQMNSLKPEDTAVYYCGVVVGVYRGSLGQGTLVTVSSCPPCPAPEAAGAPSVFLFPPKPKDTLMISRTPEVTCVVVDVSHEDPEVKFNWYVDGVEVHNAKTKPREEQYNSTYRVVSVLTVLHQDWLNGKEYKCKVSNKALPAPIEKTISKAKGQPREPQVYTLPPCRDELTKNQVSLWCLVKGFYPSDIAVEWESNGQPENNYKTTPPVLDSDGSFFLYSKLTVDKSRWQQGNVFSCSVMHEALHNHYTQKSLSLSPGEPEA
HEK-Blue assay, % human IL18 [2]: 42 % human IL18

B4: DGL215 (bispecific antibody)
chain 1: B2 chain 1
chain 2: QLQLVESGGGLVQAGGSLRLSCAASRSITFSHNVMGWYRQAPGKQRELVASIGSGGSTNYVDSVKGRATISRDNAKKTVYLQMNSLKPEDTAVYYCGVVVGVYRGSLGQGTLVTVSSPLAPCPPCPAPEAAGAPSVFLFPPKPKDTLMISRTPEVTCVVVDVSHEDPEVKFNWYVDGVEVHNAKTKPREEQYNSTYRVVSVLTVLHQDWLNGKEYKCKVSNKALPAPIEKTISKAKGQPREPQVYTLPPCRDELTKNQVSLWCLVKGFYPSDIAVEWESNGQPENNYKTTPPVLDSDGSFFLYSKLTVDKSRWQQGNVFSCSVMHEALHNHYTQKSLSLSPGEPEA
HEK-Blue assay, % human IL18 [2]: 40 % human IL18

B8: DGL218 (bispecific antibody)
chain 1: QVQLVESGGGLVQAGGSLRLSCAASGRTFSKHAMGWFRQAPGKEREFVAAIDWSGGSTYYADSVKGRFTISRDNAKNTVYLQMDSLKPEDTAVYYCAADSYTDYAQLWLPELESEYDYWGQGTLVTVSSCPPCPAPEAAGAPSVFLFPPKPKDTLMISRTPEVTCVVVDVSHEDPEVKFNWYVDGVEVHNAKTKPREEQYNSTYRVVSVLTVLHQDWLNGKEYKCKVSNKALPAPIEKTISKAKGQPREPQVCTLPPSRDELTKNQVSLSCAVKGFYPSDIAVEWESNGQPENNYKTTPPVLDSDGSFFLVSKLTVDKSRWQQGNVFSCSVMHEALHNHYTQKSLSLSPGWSHPQFEK
chain 2: not shown
HEK-Blue assay, % human IL18 [3]: 44 % human IL18

B9: DGL211 (bispecific antibody)
chain 1: QVQLVESGGGLVQAGGSLRLSCAASGRTFSKHAMGWFRQAPGKEREFVAAIDWSGGSTYYADSVKGRFTISRDNAKNTVYLQMDSLKPEDTAVYYCAADSYTDYAQLWLPELESEYDYWGQGTLVTVSSEKSYGPPCPPCPAPEAAGAPSVFLFPPKPKDTLMISRTPEVTCVVVDVSHEDPEVKFNWYVDGVEVHNAKTKPREEQYNSTYRVVSVLTVLHQDWLNGKEYKCKVSNKALPAPIEKTISKAKGQPREPQVCTLPPSRDELTKNQVSLSCAVKGFYPSDIAVEWESNGQPENNYKTTPPVLDSDGSFFLVSKLTVDKSRWQQGNVFSCSVMHEALHNHYTQKSLSLSPGWSHPQFEK
chain 2: QLQLVESGGGLVQAGGSLRLSCAASRSITFSHNVMGWYRQAPGKQRELVASIGSGGSTNYVDSVKGRATISRDNAKKTVYLQMNSLKPEDTAVYYCGVVVGVYRGSLGQGTLVTVSSEKSYGPPCPPCPAPEAAGAPSVFLFPPKPKDTLMISRTPEVTCVVVDVSHEDPEVKFNWYVDGVEVHNAKTKPREEQYNSTYRVVSVLTVLHQDWLNGKEYKCKVSNKALPAPIEKTISKAKGQPREPQVYTLPPCRDELTKNQVSLWCLVKGFYPSDIAVEWESNGQPENNYKTTPPVLDSDGSFFLYSKLTVDKSRWQQGNVFSCSVMHEALHNHYTQKSLSLSPGEPEA
HEK-Blue assay, % human IL-18 [1]: 50 % of human IL18 activity

B10: DGL219 (bispecific antibody)
chain 1: QVQLVESGGGLVQAGGSLRLSCAASGRTFSKHAMGWFRQAPGKEREFVAAIDWSGGSTYYADSVKGRFTISRDNAKNTVYLQMDSLKPEDTAVYYCAADSYTDYAQLWLPELESEYDYWGQGTLVTVSSPLAPDKTHTCPPCPAPEAAGAPSVFLFPPKPKDTLMISRTPEVTCVVVDVSHEDPEVKFNWYVDGVEVHNAKTKPREEQYNSTYRVVSVLTVLHQDWLNGKEYKCKVSNKALPAPIEKTISKAKGQPREPQVCTLPPSRDELTKNQVSLSCAVKGFYPSDIAVEWESNGQPENNYKTTPPVLDSDGSFFLVSKLTVDKSRWQQGNVFSCSVMHEALHNHYTQKSLSLSPGWSHPQFEK
chain 2: not shown
HEK-Blue assay, % human IL18 [3]: 35 % human IL18

B11: DGL220 (bispecific antibody)
chain 1: QVQLVESGGGLVQAGGSLRLSCAASGRTFSKHAMGWFRQAPGKEREFVAAIDWSGGSTYYADSVKGRFTISRDNAKNTVYLQMDSLKPEDTAVYYCAADSYTDYAQLWLPELESEYDYWGQGTLVTVSSPLAPCPPCPAPEAAGAPSVFLFPPKPKDTLMISRTPEVTCVVVDVSHEDPEVKFNWYVDGVEVHNAKTKPREEQYNSTYRVVSVLTVLHQDWLNGKEYKCKVSNKALPAPIEKTISKAKGQPREPQVCTLPPSRDELTKNQVSLSCAVKGFYPSDIAVEWESNGQPENNYKTTPPVLDSDGSFFLVSKLTVDKSRWQQGNVFSCSVMHEALHNHYTQKSLSLSPGWSHPQFEK
chain 2: not shown
HEK-Blue assay, % human IL18 [3]: 53 % human IL18

More lines, now with the values ahead:

HEK-Blue assay, % human IL18 [2]: 31 % human IL18
B3: DGL214 (bispecific antibody)
chain 1: B2 chain 1
chain 2: not shown

HEK-Blue assay, % human IL18 [2]: 45 % human IL18
B5: DGL217 (bispecific antibody)
chain 1: B2 chain 1
chain 2: B9 chain 2

HEK-Blue assay, % human IL18 [2]: 22 % human IL18
B6: DGL216 (bispecific antibody)
chain 1: B2 chain 1
chain 2: B1 chain 2

HEK-Blue assay, % human IL-18 [1]: 41 % of human IL18 activity
B7: DGL212 (bispecific antibody)
chain 1: B2 chain 1
chain 2: not shown
